Assays:
[1] = target: recombinant troponin I (cardiac troponin I) (UniProt P19429 P19429:2-210); experiment: AC voltammetry; MB redox current decreases on troponin I exposure; aptamer immobilised on gold microstructures in perfused pig skin (600 ng/mL perfusate) and on gold disk electrode in 150 mM PBS pH 7.4; details: label: methylene blue
bovine serum albumin = bovine serum albumin (Bos taurus, UniProt P02769 P02769:25-607); experiment: AC voltammetry specificity control; 50 ng/mL BSA in PBS gave little change on aptamer-functionalised gold disk electrode; details: label: methylene blue
Chain of bovine serum albumin (P02769 25-607, one chain of several): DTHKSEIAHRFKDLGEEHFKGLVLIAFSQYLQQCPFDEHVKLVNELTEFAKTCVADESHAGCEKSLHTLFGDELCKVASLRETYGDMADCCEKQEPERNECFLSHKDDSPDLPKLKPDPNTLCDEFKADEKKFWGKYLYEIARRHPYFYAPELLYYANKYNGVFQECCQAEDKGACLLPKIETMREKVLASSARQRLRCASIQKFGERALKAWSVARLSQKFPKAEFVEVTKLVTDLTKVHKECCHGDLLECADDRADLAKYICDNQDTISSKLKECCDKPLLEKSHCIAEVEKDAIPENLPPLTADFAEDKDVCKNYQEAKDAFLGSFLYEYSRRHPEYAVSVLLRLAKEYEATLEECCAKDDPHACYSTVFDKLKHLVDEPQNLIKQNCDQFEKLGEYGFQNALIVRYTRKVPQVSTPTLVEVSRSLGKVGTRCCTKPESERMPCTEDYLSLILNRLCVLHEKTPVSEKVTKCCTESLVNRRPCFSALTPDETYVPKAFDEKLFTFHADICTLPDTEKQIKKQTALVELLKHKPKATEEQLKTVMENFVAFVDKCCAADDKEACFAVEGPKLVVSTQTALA

Chain of recombinant troponin I (cardiac troponin I) (P19429 2-210, one chain of several): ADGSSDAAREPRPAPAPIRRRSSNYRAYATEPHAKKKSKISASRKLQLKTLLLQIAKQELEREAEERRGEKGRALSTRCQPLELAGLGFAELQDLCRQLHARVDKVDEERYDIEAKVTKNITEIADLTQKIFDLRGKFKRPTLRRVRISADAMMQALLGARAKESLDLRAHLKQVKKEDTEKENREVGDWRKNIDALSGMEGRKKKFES

B1: troponin I aptamer (thiol/methylene blue) (ssDNA)
DNA: AGTCTCCGCTGTCCTCCCGATGCACTTGACGTATGTCTCACTTTCTTTTCATTGACATGGGATGACGCCGTGACTG
modifications: 5'-SH-(CH2)6, 3'-methylene blue
Q: Does B1 bind [1]?
A: Result: binds

Q: Does B1 bind (bovine serum albumin)?
A: Result: no binding

— patent US20210338158A1, “MEASUREMENT SYSTEM” (WearOptimo Pty Ltd, published 2021)
